In patent publication US20170015742A1 (published 2017):

What was measured:
Human VEGF-A 165 = biological target: T1, Human VEGF-A 165 (human, UniProt P15692 207-395); experiment: Biacore SPR (Example 1.1)
T1 construct: also called hVEGF165; huVEGF-A165
Protocol: Unreacted moieties on the biosensor surface were blocked with ethanolamine. For kinetic analysis, rate equations derived from the 1:1 Langmuir binding model were fitted simultaneously to multiple antigen injections (using global fit analysis) with the use of Scrubber 2 (BioLogic Software), Biacore Biaevaluation 4.0.1 software or Biacore T100 Evaluation software. Purified antibodies or DVD-Ig molecules were diluted in running buffer for capture across goat anti-human Fc reaction surfaces. Antibodies or DVD-Ig molecules to be captured as a ligand (1 μg/ml) were injected over reaction matrices at a flow rate of 10 μl/minute. During the assay, all measurements were referenced against the capture surface alone (i.e., with no captured antibody or DVD-Ig molecule). […] The equilibrium dissociation constant KD (M) of the reaction between antibodies and the target antigen was then calculated from the kinetic rate constants by the following formula: KD=Koff/Kₒₙ. Binding was recorded as a function of time and kinetic rate constants were calculated. In this assay, on-rates as fast as 10⁶M⁻¹s⁻¹ and off-rates as slow as 10⁻⁶ s⁻¹ could be measured. […]

VEGF-A = biological target: T2, VEGF-A (human, UniProt P15692 207-395); experiment: Biacore SPR; DVD-Ig captured on anti-human Fc, antigen injected
T2 construct: also called hVEGF165
Protocol: (§1) For example, approximately 9000 RU of goat anti-human Fc specific polyclonal antibody (Thermo Fisher Scientific Inc., Rockford, Ill.) diluted in 10 mM sodium acetate (pH 4.5) is directly immobilized across a CM5 research grade biosensor chip using a standard amine coupling kit according to manufacturer's instructions and procedures at 25 μg/ml. Unreacted moieties on the biosensor surface were blocked with ethanolamine. For kinetic analysis, rate equations derived from the 1:1 Langmuir binding model were fitted simultaneously to multiple antigen injections (using global fit analysis) with the use of Scrubber 2 (BioLogic Software), Biacore Biaevaluation 4.0.1 software or Biacore T100 Evaluation software. Purified antibodies or DVD-Ig molecules were diluted in running buffer for capture across goat anti-human Fc reaction surfaces. Antibodies or DVD-Ig molecules to be captured as a ligand (1 μg/ml) were injected over reaction matrices at a flow rate of 10 μl/minute. During the assay, all measurements were referenced against the capture surface alone (i.e., with no captured antibody or DVD-Ig molecule). […] The equilibrium dissociation constant KD (M) of the reaction between antibodies and the target antigen was then calculated from the kinetic rate constants by the following formula: KD=Koff/Kₒₙ. Binding was recorded as a function of time and kinetic rate constants were calculated.

PDGF-BB = biological target: T3, PDGF-BB (human, UniProt P01127 82-190, limits assumed); experiment: as above
T3 construct: also called human PDGF-BB; hPDGF-BB
Protocol: as §1

T3 sequence (P01127 82-190 limits assumed): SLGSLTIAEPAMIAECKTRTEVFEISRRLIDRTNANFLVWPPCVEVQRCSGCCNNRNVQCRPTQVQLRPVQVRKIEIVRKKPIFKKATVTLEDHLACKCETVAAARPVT
T1 sequence (P15692 other isoform, or with tags, fused parts or gaps limits assumed): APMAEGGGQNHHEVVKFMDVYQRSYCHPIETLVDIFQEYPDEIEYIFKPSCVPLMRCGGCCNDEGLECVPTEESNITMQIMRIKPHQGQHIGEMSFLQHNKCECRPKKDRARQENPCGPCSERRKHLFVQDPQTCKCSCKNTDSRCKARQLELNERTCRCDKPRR
T2 sequence (P15692 other isoform, or with tags, fused parts or gaps limits assumed): as above

| Binder | Kd (Human VEGF-A 165) [nM] | kon (Human VEGF-A 165) [M⁻¹ s⁻¹] | Kd (VEGF-A) [nM] | kon (VEGF-A) [M⁻¹ s⁻¹] | Kd (PDGF-BB) [nM] | kon (PDGF-BB) [M⁻¹ s⁻¹] |
| --- | --- | --- | --- | --- | --- | --- |
| BEW-1E3-D6 (antibody, IgG2b, V domains shown) VH: QIQLVQSGPELKKPGESVKISCKASGYPFTNSGMYWVKQAPGQGLQYMGWINTEAGKPTYADDFKGRFVFFLETSASTAYLQINNLKNEDMATYFCARWGYISDNSYGWFDYWGQGTLVTVSS VL: DTVLTQSPALAVSPGERVSISCRASEGVYSYMHWYQQNPGQQPKLLIYKASNLASGVPARFSGSGSGTDFTLTIDPVEADDTATYFCHQNWNDPLTFGSGTKLEIK | 0.01 | 1.4e+07 |  |  |  |  |
| BEW-9A8-E2 (antibody, IgG2a, V domains shown) VH: QIQLVQSGPELKKPGESVKISCKASGYTFTNYGMYWVKQAPGQGLQYMGWINTETGKPIYADDFKGRFVFFLETSASTAYLQINNLKNEDMATFFCARVDYDGSFWFAYWGQGTLVTVSS VL: DTVLTQSPALAVSPGERVSISCRASESVSTVIHWYQQKPGQQPKLLIHGASNLESGVPARFSGSGSGTDFTLTIDPVEADDTATYFCQQHWNDPPTFGAGTKLEMK | 0.00096 | 7.4e+06 |  |  |  |  |
| BEW-5C3-E7 (antibody, IgG2b, V domains shown) VH: QIQLVQSGPELKKPGESVKISCKASGYTFTNYGVYWVKQAPGQGLQYMGWINTETGKPTYADDFKGRFVFFLETSTNTAYLQINNLKNEDMATFFCARARQLDWFVYWGQGTLVTVSS VL: DTVLTQSPALTVSPGERVSISCRARESLTTSLCWFQQKPGQQPKLLIYGASKLESGVPARFSGSGSGTDFTLTIDPVEADDTATYFCQQSWYDPPTFGGGTKLELK | 0.0039 | 1.2e+07 |  |  |  |  |
| BEW-8E6-E4 (antibody, IgG2a, V domains shown) VH: QIQLVQSGPELKKPGESVKISCKASGYTFTDYAMHWVKQAPGKVLKWMGWINTFTGKPTYIDDFKGRFVFSLEASASTANLQISDLKNEDTATYFCARGNYYSGYWYFDFWGPGTMVTMSS VL: DIQMTQSPASLSASLGETISIECRASEDISSNLAWYQQKSGKSPQLLIFAANRLQDGVPSRFSGSGSGTQFSLKISGMQPEDEGDYFCLQGSKFYTFGAGTKLELK | 0.017 | 6.9e+06 |  |  |  |  |
| BEW-3A1-D10-G9 (antibody, IgG2b, V domains shown) VH: QVQLEQSGAELVKPGTSVKLSCMASGYTSSSNHMNWMKQTTGQGLEWIGIINPGSGGTRYNVKFEGKATLTVDKSSSTAFMQLNSLTPEDSAVYYCARAGFPGPFSYYAMGAWGQGTSVTVSS VL: DIQMTQSPPVLSASVGDRVTLSCKASQNIHNNLDWYQQKHGEAPKLLIFYTNNLQTGIPSRFSGSGSGTDYTLTISSLQPEDVATYYCYQYNSGYTFGAGTKLELK | 0.14 | 1e+07 |  |  |  |  |
| 4G8.3-LS-9E8.4 (g) (PR-1572106) (bispecific antibody, human IgG1, kappa, L234A L235A, DVD-Ig: outer hBDB-4G8.3 (VEGF), inner hBDI-9E8.4 (PDGF), linkers HG-long/LK-short; Human IgG1 L234A, L235A, H435A with kappa) heavy: EVQLVQSGSELKKPGASVKVSCKASGYTFTNYGMYWVRQAPGQGLEWMGWINTETGKPTYADDFKGRFVFSLDTSVSTAYLQISSLKAEDTAVYYCARTNYYYRSYIFYFDYWGQGTMVTVSSASTKGPSVFPLAPEVTLRESGPALVKPTQTLTLTCTFSGFSLSTYGMGVGWIRQPPGKALEWLANIWWDDDKYYNPSLKNRLTISKDTSKNQVVLTMTNMDPVDTATYYCARIESIGTTYSFDYWGQGTMVTVSSASTKGPSVFPLAPSSKSTSGGTAALGCLVKDYFPEPVTVSWNSGALTSGVHTFPAVLQSSGLYSLSSVVTVPSSSLGTQTYICNVNHKPSNTKVDKKVEPKSCDKTHTCPPCPAPEAAGGPSVFLFPPKPKDTLMISRTPEVTCVVVDVSHEDPEVKFNWYVDGVEVHNAKTKPREEQYNSTYRVVSVLTVLHQDWLNGKEYKCKVSNKALPAPIEKTISKAKGQPREPQVYTLPPSREEMTKNQVSLTCLVKGFYPSDIAVEWESNGQPENNYKTTPPVLDSDGSFFLYSKLTVDKSRWQQGNVFSCSVMHEALHNAYTQKSLSLSPGK light: DTVLTQSPATLSLSPGERATLSCRASESVSTHMHWYQQKPGQAPRLLIYGASNLESGVPARFSGSGSGTDFTLTISSLEPEDFAVYFCQQSWNDPFTFGQGTKLEIKRTVAAPEFVLTQSPGTLSLSPGERATLSCERSSGDIGDSYVSWYQQKPGQAPRLVIYADDQRPSGIPDRFSGSGSGTDFTLTISRLEPEDFAVYYCQSYDINIDIVFGGGTKVEIKRTVAAPSVFIFPPSDEQLKSGTASVVCLLNNFYPREAKVQWKVDNALQSGNSQESVTEQDSKDSTYSLSSTLTLSKADYEKHKVYACEVTHQGLSSPVTKSFNRGEC |  |  | 0.0081 | 6.3e+06 | 0.011 | 1.8e+07 |
| 4G8.3-LS-9E8.4E (PR-1575835) (bispecific antibody, human IgG1, kappa, L234A L235A, DVD-Ig: outer hBDB-4G8.3 (VEGF), inner hBDI-9E8.4E (PDGF), linkers HG-long/LK-short; Human IgG1 L234A, L235A, H435A with kappa) heavy: EVQLVQSGSELKKPGASVKVSCKASGYTFTNYGMYWVRQAPGQGLEWMGWINTETGKPTYADDFKGRFVFSLDTSVSTAYLQISSLKAEDTAVYYCARTNYYYRSYIFYFDYWGQGTMVTVSSASTKGPSVFPLAPEVTLRESGPALVKPTQTLTLTCTFSGFSLSTYGMGVGWIRQPPGKALEWLANIWWDDDKYYNPSLKNRLTISKDTSKNQVVLTMTNMDPVDTATYYCARIESIGTTYSFDYWGQGTMVTVSSASTKGPSVFPLAPSSKSTSGGTAALGCLVKDYFPEPVTVSWNSGALTSGVHTFPAVLQSSGLYSLSSVVTVPSSSLGTQTYICNVNHKPSNTKVDKKVEPKSCDKTHTCPPCPAPEAAGGPSVFLFPPKPKDTLMISRTPEVTCVVVDVSHEDPEVKFNWYVDGVEVHNAKTKPREEQYNSTYRVVSVLTVLHQDWLNGKEYKCKVSNKALPAPIEKTISKAKGQPREPQVYTLPPSREEMTKNQVSLTCLVKGFYPSDIAVEWESNGQPENNYKTTPPVLDSDGSFFLYSKLTVDKSRWQQGNVFSCSVMHEALHNAYTQKSLSLSPGK light: DTVLTQSPATLSLSPGERATLSCRASESVSTHMHWYQQKPGQAPRLLIYGASNLESGVPARFSGSGSGTDFTLTISSLEPEDFAVYFCQQSWNDPFTFGQGTKLEIKRTVAAPEFVLTQSPGTLSLSPGERATLSCERSSGDIGESYVSWYQQKPGQAPRLVIYADDQRPSGIPDRFSGSGSGTDFTLTISRLEPEDFAVYYCQSYDINIDIVFGGGTKVEIKRTVAAPSVFIFPPSDEQLKSGTASVVCLLNNFYPREAKVQWKVDNALQSGNSQESVTEQDSKDSTYSLSSTLTLSKADYEKHKVYACEVTHQGLSSPVTKSFNRGEC |  |  | 0.01 | 5.8e+06 | 0.014 | 2e+07 |
| BEW-6C2-C8 (antibody, IgG2b, V domains shown) VH: EVQLVESGGGLVQPGSSLKLSCAASGFTFSYYGMHWIRQAPKKGLEWMALIYYDSSKMYYADSVKGRFTISRDNSKNTLYLEMNSLRSEDTAMYYCAAGGTAPVYWGQGVMVTVSS VL: NIQLTQSPSLLSASVGDRVTLSCKGSQNIANYLAWYQQKLGEAPKLLIYNTDSLQTGIPSRFSGSGSGTDYTLTISSLQPEDVATYFCYQSNNGYTFGAGTKLELR | 0.012 | 6.9e+06 |  |  |  |  |
| BEW-1B10-B9-C3 (antibody, IgG2a, V domains shown) VH: EVQLVESGGGLVQPGRSLKLSCAASGFSFSKYDMAWFRQTPTKGLEWVASITTSGVGTYYRDSVKGRFTVSRDNAKSTLYLQMDSLRSEDTATYYCARGYGAMDAWGQGTSVTVSS VL: DIQMTQSPASLSASLEEIVTITCKASQDIDDYLSWYQQKPGKSPQLVIYAATRLADGVPSRFSGSGSGTQYSLKISRLQVDDSGIYYCLQSSSTPWTFGGGTNLELK | 0.016 | 4.4e+06 |  |  |  |  |
| 4G8.3-GS-9E8.4E (PR-1575832) (bispecific antibody, human IgG1, kappa, L234A L235A, DVD-Ig: outer hBDB-4G8.3 (VEGF), inner hBDI-9E8.4E (PDGF), linkers GS-H10/GS-L10; Human IgG1 L234A, L235A, H435A with kappa) heavy: EVQLVQSGSELKKPGASVKVSCKASGYTFTNYGMYWVRQAPGQGLEWMGWINTETGKPTYADDFKGRFVFSLDTSVSTAYLQISSLKAEDTAVYYCARTNYYYRSYIFYFDYWGQGTMVTVSSGGGGSGGGGSEVTLRESGPALVKPTQTLTLTCTFSGFSLSTYGMGVGWIRQPPGKALEWLANIWWDDDKYYNPSLKNRLTISKDTSKNQVVLTMTNMDPVDTATYYCARIESIGTTYSFDYWGQGTMVTVSSASTKGPSVFPLAPSSKSTSGGTAALGCLVKDYFPEPVTVSWNSGALTSGVHTFPAVLQSSGLYSLSSVVTVPSSSLGTQTYICNVNHKPSNTKVDKKVEPKSCDKTHTCPPCPAPEAAGGPSVFLFPPKPKDTLMISRTPEVTCVVVDVSHEDPEVKFNWYVDGVEVHNAKTKPREEQYNSTYRVVSVLTVLHQDWLNGKEYKCKVSNKALPAPIEKTISKAKGQPREPQVYTLPPSREEMTKNQVSLTCLVKGFYPSDIAVEWESNGQPENNYKTTPPVLDSDGSFFLYSKLTVDKSRWQQGNVFSCSVMHEALHNAYTQKSLSLSPGK light: DTVLTQSPATLSLSPGERATLSCRASESVSTHMHWYQQKPGQAPRLLIYGASNLESGVPARFSGSGSGTDFTLTISSLEPEDFAVYFCQQSWNDPFTFGQGTKLEIKRGGSGGGGSGEFVLTQSPGTLSLSPGERATLSCERSSGDIGESYVSWYQQKPGQAPRLVIYADDQRPSGIPDRFSGSGSGTDFTLTISRLEPEDFAVYYCQSYDINIDIVFGGGTKVEIKRTVAAPSVFIFPPSDEQLKSGTASVVCLLNNFYPREAKVQWKVDNALQSGNSQESVTEQDSKDSTYSLSSTLTLSKADYEKHKVYACEVTHQGLSSPVTKSFNRGEC |  |  | 0.013 | 6.1e+06 | 0.02 | 1.3e+07 |
